From the nanobody polyreactivity screen of Harvey et al. (2022)

Test: yeast display, Sf9 membrane polyspecificity reagent, FACS + sequencing; frameworks hold sequencing errors
In short: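 Using colony PCR, genes from sorted yeast display clones were amplified, then sequenced on MiSeq at 2 × 250 and filtered by CDR length. The clones had been stained with 10% biotinylated, detergent-solubilized Sf9 membrane reagent for 1 hour at 4 °C and sorted by FACS into low and high (top ~1%) gates on anti-HA and streptavidin fluorescence. Polyreactivity labels come from the gate of origin.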

Sequence: QDQLVESGGGLVQAGGSLRLSCAASGSTFPDYAAMGWYRPAPGTERELVAAISKRGGSTYYADSVKGRFTISRDNAKNTVYYQMNSLKPEDTAVYSCNVEYYILTAGRYARAYDYGGQGTQVTVSS
- polyreactivity (PSR sort gate): high polyreactivity

Sequence: QVQLVLLGGGLVQAGGTLRVSCAPSGSIIYWKDRGWYRQAPGKERELDASITASGSSTYYADSVKGRFTISRDNGKNTVYLQMNSLLPEDTAVYYCNTSVFTYYDSAYDYWGQGTQVTVSS
- polyreactivity (PSR sort gate): low polyreactivity

Sequence: QVQLVESGGGLVQAGGSLRLICAASGRTSVVNAMGWYRQAPGKERELVAAITSGGSTHYADSVKGRFTISRDNAKNTVYLQITSLKPEDTAGYYFNARDRRRTNLLDYWGQATQVTVSS
- polyreactivity (PSR sort gate): low polyreactivity

Sequence: QVQLVESGGGLVQAGGSLRLSCAASGRTFPLYAMGWYIQAPGKERELVAAITRSGGSTYYADSVKGRFTISRDNAKNTVYLQMNSLKPEDTAVYYCNARKSKDRPTGYAFNYWGQGTQVTVSS
- polyreactivity (PSR sort gate): high polyreactivity

Sequence: QVQLVESGGGLVQAGGSLRLSCAASGRTFSWYAMGWYRQAPGKERELVAAITWSGGSTYYADSVKGRFTISRDNAKNTVYLQMNSLKPEDTAVYYCNALRYSNRRYYSTGPHDYWGQGTQVTVSS
- polyreactivity (PSR sort gate): high polyreactivity

Sequence: QVQLVESGGGLVQAGGSLRLSCAASGIIFAYYAMGWYRQAPGKERELVGTNYADSVKGRFTISRDNAKNTVYLQMNSLKPEDTAVYYCNTEWTSLSKSSLGGRYDHWGQGTQVTVSS
- polyreactivity (PSR sort gate): low polyreactivity

Sequence: QVQLVESGGGLVQAGGSLRLSCAASGSIFTYYAMGWYRQAPGKERELVDAITWDDDGTYYADSVKGRFTISRDNAKNTVYLQMNSLKPEDTAVYYCAADDGDPYDYWGQGSQVTVSS
- polyreactivity (PSR sort gate): low polyreactivity

Sequence: QVQLVESGGGLVQAGGSLRLSCAASGSTFFYYTIGWYRQAPGKERELVASITNRGGNTYYADSVKGRFTISRDNAKNTVYLQTNSLKPEDTAVYYCARRYYGYSGRYDYWGQGTQVTVSS
- polyreactivity (PSR sort gate): high polyreactivity

Sequence: QVQLVESGGGLVQAGGSLRLSCDASGRIFASNAMGWYRQAPGKERELVATIRRSGGSTYYADSVKGRFTISRDNAKNTVYLQMNSLKPEDTAVYYCNARMYGGYGWIYDYWRQGTQVTVSS
- polyreactivity (PSR sort gate): high polyreactivity

Sequence: QVQLVESGGGLVQAGGSLRLSCAASGFTFSIYAMGWSRQAPGKERELVAAIRSSTASTYYADSVKGRFTISRDNAKNTVYLQMNSMKPEDTAVYYCAADTYRTRHIGVKFAFNSWGQGTQVTVSS
- polyreactivity (PSR sort gate): high polyreactivity

Sequence: QVQLVESGGGLVQAGGRLRLSCAAYGSIFMYYAMGWYRQSPVKERELVAAITRGGSTYYADSVKGRFTISRDNAKNTVYLQMNSLKPEDTAVYYCAATTFRSVGYDYWGQGTQVTVSS
- polyreactivity (PSR sort gate): low polyreactivity

Sequence: QVQLVESGGGLVQARGSLRLSCAASGRIFFRNAKGWYRQAPGKERELVAAITYSGGSTYYADSVKGRFTISRDNAKNTVYLQMNSLKPEDTAVYYCGAGYWFSYSRVTRYDYWGQGTQVTVSS
- polyreactivity (PSR sort gate): high polyreactivity

Sequence: QVQLVESGGGLVQAGGSLRLSCAASGSTFPGNAMGWYRPAPGKERELVARINDGADTNYADSVKGRFTISRDNAKNTVYLQMNSLKPEDTAVYYCAKPYYDGRTHFDSWGQGTQVTVSS
- polyreactivity (PSR sort gate): low polyreactivity

Sequence: QVQLVESGGGLVQAGGSLRLSCAASGFTFYTYAMGWYRQAPGKERELVAAITGSGGRTYYADSVKGRFTISRDNAKNTVYLQMNSLKPEDTAVYYCAALYVYRPRTPYGYWGQGTQVTVSS
- polyreactivity (PSR sort gate): high polyreactivity

Sequence: QVQLVESGGGLVQAGGSLRLSCAASGYTFPQYAMRWYRQAPGKERELVAAITRRGGSTYYADSVKGRFTISRDNAKNTVYLQMNSLNPEDTAVYYGSARYYWGQGTQVTVSS
- polyreactivity (PSR sort gate): high polyreactivity

Sequence: QVQLVESGGGLVQAGGSLRLSCAASGSTLYDYTMGWYRQAPGKERELVAAIRVSGARTFYADSVKGRFTISRDNAKNTVYLQMNSLKPEDTAVYYCAARWYIANPLSPSDYWGQGTQVTVSS
- polyreactivity (PSR sort gate): low polyreactivity

Sequence: QVQLVESGGGLVQAGGSLRLSCAASGRTFYDYAMGWYRQAPGKERELVAGIRWSGGSTYYADSVKGRFTISRDNAKNTVFLQMNSLKPEDTAVYYCAADWFAGVAADVEYDYWGQGTQVTVSS
- polyreactivity (PSR sort gate): low polyreactivity

Sequence: QVQLVESGGGLVQAGGSLRLSCAASGRIFYFNAMGWYRQAPGKEREFVASINSIGDSTYYADSVKGRFTISRDYAKNTVYLQMNRLKPEDTAVYYCNADHGVINYRLDYWGQGTQVTVSS
- polyreactivity (PSR sort gate): low polyreactivity

Sequence: QVQLVESGGGLVQARGSLRLSCAGSGSTLPSYAMGWYRQAPGKERELVAAISSSGGRTYYADSVKGRFTISRDNAKNTVYLLMNSLKPEDTAVYYCAALSVANYHGTDSGYWGQGTQVTVSS
- polyreactivity (PSR sort gate): high polyreactivity

Sequence: QVQLVESGGGLVQAGGSLRLSCAASGRIFGGNAMGWYRQAPGKECELVAAISKGGGSTNYADSVKGRFTISRDNAKNTVYLQMNSLKPEDTAVYYCAAVVSAHADDVDYWGQGTQVTVSS
- polyreactivity (PSR sort gate): high polyreactivity

Sequence: QVQLVESGGGLVQAGGSLRLSCAASGRNFTDNDMGWYIQAPGKEMDLVAGINWSSGSTYYADSVKGRFTISRDNAKNTVYLQMNSLKTEDTAVYYCNALGYWRSTVHFVVGEVDYWGQGTQVTLSS
- polyreactivity (PSR sort gate): low polyreactivity

Sequence: QVQLVESGGGLVQAGGSLRLSCAASGSTFRQYAMGWYRQAPGKERELVAAINWSGSSTYYADSVKGRFTISRDNAKNTVYLQMNSLKPDDTAVYYCAAVVQYWWWKGRGYWGQGTQVTVSS
- polyreactivity (PSR sort gate): high polyreactivity

Sequence: QVQLVESGGGLVQAGGSLRLSCAASGFTLFGYAMGWYRQAPGKERELVAAISKDGGSTYYADTVKGRFTISRDNAKNTVYLQMNSLKPEDTAVYYCAARVKRPQSGYDRRYGYWGQGTQVTVSS
- polyreactivity (PSR sort gate): high polyreactivity

Sequence: QVQLVESGGGLVQAGGSLRLSCAASGFTFFDNAMGWYRQAPGKERELVAAITWSDGSTYYADSVKGRFTISRDNAKNTVYLQMNSLKPEDTAVYYCAVGFISYSYSNYYDVWYEYYYWGQGTQVTVSS
- polyreactivity (PSR sort gate): low polyreactivity

Sequence: QVQLVESGGGLVQAGGSLRLSCAASGSILYRYAMGWYRQAPGKERELVAAITRSGGSTYYADSVKGRFTISRDNAKNTVYLQMNSLKPEDTAVYYCARQRKVSAHSIEMDYWGQGTQVTVSS
- polyreactivity (PSR sort gate): low polyreactivity

Sequence: QVQLVESGGGLVQEGGSLRLSCAASGSIFSGYAMGWYRPAPGKERELVAAISSSGGSTYYADSVKGRFTISRDNAKNTVYLQMNSLKPEDTAFYYCAADARWLWVYGAYGGLDYWGQGTQVTLSS
- polyreactivity (PSR sort gate): low polyreactivity

Sequence: QVHLVETGGGLVHAGGSLRLSCASSGNIFSWYAMGWYRQAPGKEREFVAVIRGRGGSTYYADSVKGRFTISRDNAKNNVYLLMKSLKPEDTAVYYCAIRGFVLYFYRSGYGYGYWGQGTQVTVSS
- polyreactivity (PSR sort gate): low polyreactivity

Sequence: QVQLVESGGGLVQAGGSLRLSFAASGSTFPKYAMRGYRPAPGKQRELVASISVTTGSTNYADSEKGRFTISRDNAKNTVYLQMNSLKPEDTAVYYCAADTVYRTHHYAQHYYYWGQGTLVTVSS
- polyreactivity (PSR sort gate): high polyreactivity

Sequence: QVQLVESGGGLVQAGGSLRLTCAASGSTFFYYAMVWYIHAPGKERELVAAITVRGTSTYYADSVKGRFTISRDIAKNTVYLQMNSLKPEDTAVYYCNTLQPYLYDYWGQGTQVTVSS
- polyreactivity (PSR sort gate): high polyreactivity

Sequence: QVELVESAAGLVQAGGSLRLSCAASALTFSRYTMGWYSQAPGKDRELVAAISRSGASTYYADSVKGRFTISRDNAKNTVYLQTNSLTPEDTGVYYCAKTSTSYGSLPKVTPYPLDYWGQGTQVTVSS
- polyreactivity (PSR sort gate): high polyreactivity

Sequence: QVQLVESGGGLVQAGGSLRLSCAPSGSTFNNYALGGYRQAPGKERELVAAIRSIGGSTYYADSVKGRFTISRDNAKNTVYLQMNSLKPEDTAVYYCAADYFYLKWYEYWGQGTQVTVSS
- polyreactivity (PSR sort gate): high polyreactivity

Sequence: QVQLVESGGGLVQAGGSLRLSCADSGRTLVRYTMRGYRQAPGKERDLVASISQRGGTTYYADSVKGRFTISRDNAKNTVYLQMNSLKPEDTAVYYCAAGIHGRYARDWYEYWGQGTQVTVSS
- polyreactivity (PSR sort gate): low polyreactivity

Sequence: QVQLVESGGGLVQAGGSLRLSCAASGFTFISYGMGWYRQAPGKEREFVAAISYSGTGTYYADSVKVRFTISRDNAKNTVYLQMNSLKPEDTAVYYCAVYSRDFRRYDYWGQGTQVTVSS
- polyreactivity (PSR sort gate): high polyreactivity

Sequence: QVQLVESGGGLVQAGGSLRLSCAASGSIFAPYAMGWYRQAPGKERELVAAINNNGGRTYYADSVKGRFTISRDNAKNTVYLQMNSLKPEDTAVYYCAADIYPDWIYLLYGYWGQGTQVTVSS
- polyreactivity (PSR sort gate): low polyreactivity

Sequence: QVQLVESAGGLVQAGGSLRLSCAASRSIYGYYAMGWYRQEPGKERELVAAIRRSGGSTYYADSVKGRFTISRDNAKNTVYLHMNSLKPEDTAVYYCAARVSPYRGFYYWGLGTQVTVSS
- polyreactivity (PSR sort gate): high polyreactivity

Sequence: QVQLVESGGGLVQAGGSLRLSCAASGITFEPYAMGWYRQAPGKEREFVADITWSGGSTYYADSVKGRFTISRDNAKNTVYLQMNSLKPEDTAVYYCAADGWTSYWSDYWGQGTQVTVAS
- polyreactivity (PSR sort gate): low polyreactivity

Sequence: EEELVESGGGLVQAGGSLRLSCAASGSTFVSNAMGWYRQAPGKERELVAAISSSGGSTYYADSVKGRFTISRDNAKNTVYLQMNSLKPEDTAVYYCVDYYIGYTHNYNYWGQGTQVTVSS
- polyreactivity (PSR sort gate): low polyreactivity

Sequence: QVQLVESGGGLVQAGGILRLSCDASGRIFYTYAMGWYRHGPGQERELVAAISRSGTSTYYADSLKGRFTIARDNEKNHVYLQMNSLKPEDTAVYYCAIYKRLPDYGYWGQGTLVTVSS
- polyreactivity (PSR sort gate): high polyreactivity

Sequence: QVQLQDSGGGLVQAGGSLRQRCAASGYISSLAAMGWYRQAPGKERDLVAGNDLGTITNYADSVKGSLTISRDNAKNTVYLQMNSLIPEDTAVYYCAPTWYYHYNDWKHWYEYGYWGQGTQVTVSS
- polyreactivity (PSR sort gate): low polyreactivity

Sequence: QVQLVESGGGLVQAGGSLRLSCAASGRTFKYYAMGWYRQAPGKERELVAAISRSGGTTYYADSVKGRFTISRDNAKNTVYLQMNSLKPEDTAVYYCAARCATRSRYDYWGQGTQVTVSS
- polyreactivity (PSR sort gate): high polyreactivity

Sequence: QVQLVESGGGLVQAGGSLRLSCAASGFILPNYAMGWYRQATGKERELVDAITYIGGSTYYADSVKGRFTISRDNAKNTVYLHMNSLKPEDTAVYYCAKYWLGYTKFDYWGQGTQVTVSS
- polyreactivity (PSR sort gate): low polyreactivity

Sequence: QVQLVESGGGLVQAGGSLRLSCAASGYTFSHYAMGWYRQAPGKERELVAGITWSGGSTYYADSVKGRFTISRDNAKNTVYLQMNSLKPEDTSVYYCAAKYYWYYSYSGIPLFDYWGHGTQVTVSS
- polyreactivity (PSR sort gate): low polyreactivity

Sequence: QVQLVESGGGLVQAGGSLSLSCAASGSTFVPNLMGWYRQAPGKERELVAAITWSGGTTTFYADSVKGRFTISRDNAKNTVYLQMNSLKPEDTAVYYCAVTRGGQYYPYYYWGQGTQVTVSS
- polyreactivity (PSR sort gate): low polyreactivity
